{"source": "patent US20230257727", "proteins": {"B1": {"name": "Unmodified dipeptidyl aminopeptidase DAP BII (SEQ ID NO: 13) (protein)", "chain": "GEGMWVPQQLPEIAGPLKKAGLKLSPQQISDLTGDPMGAVVALGGCTASFVSPNGLVVTNHHCAYGAIQLNSTAENNLIKNGFNAPTTADEVSAGPNARVFVLDEITDVTKDAKAAIAAAGDDALARTKALEAFEKKLIADCEAEAGFRCRLYSFSGGNTYRLFKNLEIKDVRLAYAPPGSVGKFGGDIDNWMWPRHTGDFAFYRAYVGKDGKPAAFSKDNVPYQPKHWLKFADQPLGAGDFVMVAGYPGSTNRYALAAEFDNTAQWTYPTIARHYKNQIAMVEAAGKQNADIQVKYAATMAGWNNTSKNYDGQLEGFKRIDAAGQKLREEAAVLGWLKGQGAKGQPALDAHAKLLDLLEQSKATRDRDLTLALFNNTAMLGSATQLYRLSIEREKPNAERESGYQERDLPAIEGGLKQLERRYVAAMDRQLQEYWLNEYIKLPADQRVAAVDAWLGGNDAAAVKRALDRLAGTKLGSTEERLKWFAADRKAFEASNDPAIQYAVAVMPTLLKLEQERKTRAGENLAARPVYLQALADYKKSQGEFVYPDANLSLRITFGNVMGYAPKDGMEYTPFTTLEGVVAKETGQDPFDSPKALLDAVAAKRYGGLEDKRIGSVPVNYLSDLDITGGNSGSPVLDAHGKLVGLAFDGNWESVSSNWVFDPKMTRMIAVDGRYLRWIMQEVYPAPQLLKEMNVGK"}, "B2": {"name": "M15-L_Z001 modified cleavase (Thermomonas hydrothermalis S46 DPP scaffold) (protein)", "chain": "MHKTRLVAALAAALATLAPAAWADEGMWVPQQLPEIAGALKKAGLKLDPKQLSDLTGDPMGAVVSLGGCTGSFVSPQGLVATNHHCAYGAIQLNSTPEKNLIKDGFNAPTQADELSAGPNARIYVLEGITDVTAQAKAAMAAAGNDPVARANALEAFEKKITSDCEAEPGYRCRVYSFMGGITYRLFKNLEIKDVRLVYAPPSSVGKFGGDIDMGMWPTHTGDFSFYRAYVGKDGKPAPYSKDNVPYRPKHWLKIADTPLGEGDFVMVAGYPGRTDRYALVAEFENTQNWLYPAISKAYKDQIALVEAAAKDNPEIAVKYAAALAGWNRTSKNFDGQLEGFKRNDVLAIKRREEAAVLEWLRARGKAGTPALEAHAALVKLVADTARTQERDLVLGSFNRTGIIGVAVNLYRLAIERQKPDAEREPGYQQRDLPVIEGSLKQMERRYVPAMDRQLRAYWLDRYVALPAAQHVAAVDAWLGGSDKAAAEAALARLDQSRLGSLEERLKWFNADRAAFEASTDPAIQYAVAVMPTLLAMEQQAKTRYGVALEARPRYLQAVVDYKKSKGQAVYPDANSTLRITYGHVKGYTGLNGKVYTPFTTLEEVAAKETGVEPFDNPKALLEAVAAKRYAGLADARLGTVPVNFLADLDITGGNSGSPVLDANGRLVGLAFAGTLESVASNWVFDPVLTRMISVDQRYMRWIMQEVMPAPQLLEELGVPPRQ"}, "B3": {"name": "P1 cutter 1 (Thermomonas hydrothermalis S46 DPP scaffold) (protein)", "chain": "MHKTRLVAALAAALATLAPAAWADEGMWVPQQLPEIAGALKKAGLKLDPKQLSDLTGDPMGAVVSLGGCTGSFVSPQGLVATNHHCAYGAIQLNSTPEKNLIKDGFNAPTQADELSAGPNARIYVLEGITDVTAQAKAAMAAAGNDPVARANALEAFEKKITSDCEAEPGYRCRVYSFMGGITYRLFKNLEIKDVRLVYAPPSSVGKFGGDIDTMMWPKHTGDFSFYRAYVGKDGKPAPYSKDNVPYRPKHWLKIADTPLGEGDFVMVAGYPGRTDRYALVAEFENTQNWLYPAISKAYKDQIALVEAAAKDNPEIAVKYAAALAGWNYTSKNFDGQLEGFKRNDVLAIKRREEAAVLEWLRARGKAGTPALEAHAALVKLVADTARTQERDLVLGSFNRTGIIGVAVNLYRLAIERQKPDAEREPGYQQRDLPVIEGSLKQMERRYVPAMDRQLRAYWLDRYVALPAAQHVAAVDAWLGGSDKAAAEAALARLDQSRLGSLEERLKWFNADRAAFEASTDPAIQYAVAVMPTLLAMEQQAKTRYGVALEARPRYLQAVVDYKKSKGQAVYPDANSTLRITYGHVKGYTGLNGKVYTPFTTLEEVAAKETGVEPFDNPKALLEAVAAKRYAGLADARLGTVPVNFLADLDITGGNSGSPVLDANGRLVGLAFDGTLESVASNWVFDPVLTRMISVDQRYMRWIMQEVMPAPQLLEELGVPPRQ"}, "B4": {"name": "M19_053 cleavase clone (Thermomonas hydrothermalis S46 DPP scaffold) (protein)", "chain": "MHKTRLVAALAAALATLAPAAWADEGMWVPQQLPEIAGALKKAGLKLDPKQLSDLTGDPMGAVVSLGGCTGSFVSPQGLVATNHHCAYGAIQLNSTPEKNLIKDGFNAPTQADELSAGPNARIYVLEGITDVTAQAKAAMAAAGNDPVARANALEAFEKKITSDCEAEPGYRCRVYSFMGGITYRLFKNLEIKDVRLVYAPPSSVGKFGGDIDMGMWPTHTGDFSFYRAYVGKDGKPAPYSKDNVPYRPKHWLKIADTPLGEGDFVMVAGYPGRTDRYALVAEFENTQNWLYPAISKAYKDQIALVEAAAKDNPEIAVKYAAALAGWNPTSKNFDGQLEGFKRNDVLAIKRREEAAVLEWLRARGKAGTPALEAHAALVKLVADTARTQERDLVLGSFNRTGIIGVAVNLYRLAIERQKPDAEREPGYQQRDLPVIEGSLKQMERRYVPAMDRQLRAYWLDRYVALPAAQHVAAVDAWLGGSDKAAAEAALARLDQSRLGSLEERLKWFNADRAAFEASTDPAIQYAVAVMPTLLAMEQQAKTRYGVALEARPRYLQAVVDYKKSKGQAVYPDANSTLRITYGHVKGYTGLNGKVYTPFTTLEEVAAKETGVEPFDNPKALLEAVAAKRYAGLADARLGTVPVNFLADLDITGGNSGSPVLDANGRLVGLAFAGTLESVASNWVFDPVLTRMISVDQRYMRWIMQEVMPAPQLLEELGVPPRQ"}, "B5": {"name": "M15-L_Z002 modified cleavase (Thermomonas hydrothermalis S46 DPP scaffold) (protein)", "chain": "MHKTRLVAALAAALATLAPAAWADEGMWVPQQLPEIAGALKKAGLKLDPKQLSDLTGDPMGAVVSLGGCTGSFVSPQGLVATNHHCAYGAIQLNSTPEKNLIKDGFNAPTQADELSAGPNARIYVLEGITDVTAQAKAAMAAAGNDPVARANALEAFEKKITSDCEAEPGYRCRVYSFMGGITYRLFKNLEIKDVRLVYAPPSSVGKFGGDIDMGMWPTHTGDFSFYRAYVGKDGKPAPYSKDNVPYRPKHWLKIADTPLGEGDFVMVAGYPGRTDRYALVAEFENTQNWLYPAISKAYKDQIALVEAAAKDNPEIAVKYAAALAGWNRTSKNFDGQLEGFKRNDVLAIKRREEAAVLEWLRARGKAGTPALEAHAALVKLVADTARTQERDLVLGSFNRTGIIGVAVNLYRLAIERQKPDAEREPGYQQRDLPVIEGSLKQMERRYVPAMDRQLRAYWLDRYVALPAAQHVAAVDAWLGGSDKAAAEAALARLDQSRLGSLEERLKWFNADRAAFEASTDPAIQYAVAVMPTLLAMEQQAKTRYGVALEARPRYLQAVVDYKKSKGQAVYPDANSTLRITYGHVKGYTGLNGKVYTPFTTLEEVAAKETGVEPFDNPKALLEAVAAKRYAGLADARLGTVPVNFLADLDITGGNSGSPVLDANGRLVGLAFAGTLESVASNWVFDPVLTRMISVDQRYMRWIMQEVMPAPQLLEELGVPPRQ"}}, "key": {"[1]": {"target": "T1, Test peptide LMSHNARGAEDDVVRGGGGK linked to a DNA oligo", "T1 chain": "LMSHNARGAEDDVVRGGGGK"}, "M15-LAAR": {"target": "T2, M15-LAAR", "T2 chain": "LAAR"}, "[2]": {"target": "Polypeptides with M15-L-labeled P1 residues A, I, L, M, Q, V"}, "M19-AAAR": {"target": "T3, M19-AAAR", "T3 chain": "AAAR"}, "M19-LAAR": {"target": "T4, M19-LAAR", "T4 chain": "LAAR"}, "[3]": {"target": "M15-L-P1-AR peptides with D or E in the P1 position"}}, "data": [{"protein": "B1", "values": [{"measurement": "cleavage of a peptide-DNA fusion, gel bands at 0, 5, 30, 45, 60 min", "setting": "[1]", "result": "would continue gradually cleaving the polypeptide, creating multiple bands during the cleavage reaction (FIG. 10)"}]}, {"protein": "B2", "values": [{"measurement": "cleavage efficiency, time course 5, 10, 20, 30 and 60 minutes", "setting": "M15-LAAR", "result": "the M15-L_Z001 cleavase provided better specificity towards the M15-labeled polypeptide"}, {"measurement": "cleavage", "setting": "[2]", "result": "provided 100% cleavage"}]}, {"protein": "B3", "values": [{"measurement": "cleavage, product identified by LC-MS", "setting": "M19-AAAR", "result": "the observed mass of the cleaved product was 230.2 Da, which matched well with the expected mass for the M19-A (M+H) part (231.2 Da)"}]}, {"protein": "B4", "values": [{"measurement": "cleavage efficiency, time course 5, 10, 20, 30 and 60 minutes", "setting": "M19-LAAR", "result": "the newly selected cleavase clone M19_053 provided better specificity towards the M19-labeled polypeptide"}]}, {"protein": "B5", "values": [{"measurement": "cleavage profile", "setting": "[3]", "result": "M15-L_Z002, having specificity towards D and E in the P1 position"}]}]}
